# Assay results: patent US20240116985A1 (published 2024)
# Starred links: 1 amine or outer side, 2 acyl side, 3 side chain; linkers in the order of their positions; H or OH if unused. Positions of bridges follow the written chain, without caps; N, C: chain ends. Non-standard residues stand in square brackets, D forms with d. Primed or numbered codes have the meaning given here. *: point of attachment. (CCpCO2H)TriAzDap = (S)-1-(1-(2-amino-2-carboxyethyl)-1H-1,2,3-triazol-4-yl)cyclopropane-1-carboxylic acid, O=C([C@H](Cn1cc(C2(C(=O)[*:3])CC2)nn1)N[*:1])[*:2]; B5(10) = 2-amino-2-(pent-4-en-1-yl)hept-6-enoic acid, bis(4-pentenyl)glycine, stitching residue bearing both staples, C=CCCCC(CCCC=C)(N[*:1])C(=O)[*:2]; PyrS2″ = (S)-3-amino-1-((pent-4-en-1-yloxy)carbonyl)pyrrolidine-3-carboxylic acid (stapling residue), C=CCCCOC(=O)N1CC[C@@](N[*:1])(C(=O)[*:2])C1; B5(5) = 2,2-bis(4-pentenyl)glycine, 2-amino-2-(pent-4-en-1-yl)hept-6-enoic acid (stitching residue), C=CCCCC(CCCC=C)(N[*:1])C(=O)[*:2]; PyrS2 = (S)-3-amino-1-((pent-4-en-1-yloxy)carbonyl)pyrrolidine-3-carboxylic acid, C=CCCCOC(=O)N1CC[C@@](N[*:1])(C(=O)[*:2])C1; Bta = N[C@@H](Cc1csc2ccccc12)C(=O)O; αAllylPro = C=CC[C@@]1(C(=O)O)CCCN1; tBuAla = CC(C)(C)C[C@H](N)C(=O)O; 3Thi = N[C@@H](Cc1ccsc1)C(=O)O; S8 = C=CCCCCCC[C@](C)(N)C(=O)O; Ms = CS(=O)(=O)*
# T1: beta-catenin in DLD1 TCF/LEF luciferase reporter cells (UniProt P35222 1-781)
# T1 sequence (looked up): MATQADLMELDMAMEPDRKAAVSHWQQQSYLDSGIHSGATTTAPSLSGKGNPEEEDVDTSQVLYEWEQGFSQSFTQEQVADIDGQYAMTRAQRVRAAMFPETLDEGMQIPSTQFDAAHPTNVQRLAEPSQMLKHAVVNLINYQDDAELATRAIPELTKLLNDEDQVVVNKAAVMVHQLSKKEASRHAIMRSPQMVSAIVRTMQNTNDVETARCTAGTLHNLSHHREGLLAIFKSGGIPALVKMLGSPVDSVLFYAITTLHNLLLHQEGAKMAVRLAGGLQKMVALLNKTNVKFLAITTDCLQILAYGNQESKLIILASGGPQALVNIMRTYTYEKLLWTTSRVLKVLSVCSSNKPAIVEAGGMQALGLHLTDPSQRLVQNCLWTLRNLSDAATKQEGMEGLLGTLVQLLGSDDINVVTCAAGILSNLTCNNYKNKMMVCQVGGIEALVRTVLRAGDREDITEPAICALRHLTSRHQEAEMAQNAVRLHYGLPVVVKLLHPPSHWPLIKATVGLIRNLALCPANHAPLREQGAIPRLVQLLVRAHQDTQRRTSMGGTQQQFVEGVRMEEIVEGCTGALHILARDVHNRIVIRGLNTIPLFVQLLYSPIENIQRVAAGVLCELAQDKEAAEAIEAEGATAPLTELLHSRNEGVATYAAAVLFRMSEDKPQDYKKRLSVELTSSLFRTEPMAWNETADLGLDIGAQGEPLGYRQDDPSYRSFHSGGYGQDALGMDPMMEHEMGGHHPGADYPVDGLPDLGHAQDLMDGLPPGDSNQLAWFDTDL
# T2: B-cat-Halo (beta-catenin HaloTag fusion expressed in HEK293 cells) (Homo sapiens (Human), UniProt P35222 1-781)
# T2 sequence: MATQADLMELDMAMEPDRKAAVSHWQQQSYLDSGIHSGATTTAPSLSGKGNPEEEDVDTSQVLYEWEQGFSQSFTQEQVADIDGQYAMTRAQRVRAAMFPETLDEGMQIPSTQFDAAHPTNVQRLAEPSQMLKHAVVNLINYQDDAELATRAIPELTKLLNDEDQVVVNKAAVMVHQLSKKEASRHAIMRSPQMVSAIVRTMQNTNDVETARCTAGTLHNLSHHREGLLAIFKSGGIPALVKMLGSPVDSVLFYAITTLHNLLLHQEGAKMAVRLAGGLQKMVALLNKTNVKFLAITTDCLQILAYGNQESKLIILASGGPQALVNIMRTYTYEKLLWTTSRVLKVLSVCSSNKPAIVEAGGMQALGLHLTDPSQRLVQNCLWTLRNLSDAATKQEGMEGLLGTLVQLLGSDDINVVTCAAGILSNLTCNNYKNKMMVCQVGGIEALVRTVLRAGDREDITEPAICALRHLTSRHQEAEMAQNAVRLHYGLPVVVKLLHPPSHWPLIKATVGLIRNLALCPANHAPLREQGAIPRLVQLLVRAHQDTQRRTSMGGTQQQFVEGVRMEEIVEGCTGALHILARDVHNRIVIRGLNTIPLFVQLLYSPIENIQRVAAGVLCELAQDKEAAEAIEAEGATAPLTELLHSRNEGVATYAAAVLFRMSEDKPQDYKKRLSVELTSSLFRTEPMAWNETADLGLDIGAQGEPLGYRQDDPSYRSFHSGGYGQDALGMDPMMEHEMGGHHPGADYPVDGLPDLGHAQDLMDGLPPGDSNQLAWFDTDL
# T3: full-length beta-Catenin (Uniprot ID P35222) (Homo sapiens (Human), UniProt P35222 2-781)
# T3 construct: The FP protocol says 'full-length beta-Catenin (Uniprot ID P35222)'; also called bCat; B-Catenin
# T3 sequence: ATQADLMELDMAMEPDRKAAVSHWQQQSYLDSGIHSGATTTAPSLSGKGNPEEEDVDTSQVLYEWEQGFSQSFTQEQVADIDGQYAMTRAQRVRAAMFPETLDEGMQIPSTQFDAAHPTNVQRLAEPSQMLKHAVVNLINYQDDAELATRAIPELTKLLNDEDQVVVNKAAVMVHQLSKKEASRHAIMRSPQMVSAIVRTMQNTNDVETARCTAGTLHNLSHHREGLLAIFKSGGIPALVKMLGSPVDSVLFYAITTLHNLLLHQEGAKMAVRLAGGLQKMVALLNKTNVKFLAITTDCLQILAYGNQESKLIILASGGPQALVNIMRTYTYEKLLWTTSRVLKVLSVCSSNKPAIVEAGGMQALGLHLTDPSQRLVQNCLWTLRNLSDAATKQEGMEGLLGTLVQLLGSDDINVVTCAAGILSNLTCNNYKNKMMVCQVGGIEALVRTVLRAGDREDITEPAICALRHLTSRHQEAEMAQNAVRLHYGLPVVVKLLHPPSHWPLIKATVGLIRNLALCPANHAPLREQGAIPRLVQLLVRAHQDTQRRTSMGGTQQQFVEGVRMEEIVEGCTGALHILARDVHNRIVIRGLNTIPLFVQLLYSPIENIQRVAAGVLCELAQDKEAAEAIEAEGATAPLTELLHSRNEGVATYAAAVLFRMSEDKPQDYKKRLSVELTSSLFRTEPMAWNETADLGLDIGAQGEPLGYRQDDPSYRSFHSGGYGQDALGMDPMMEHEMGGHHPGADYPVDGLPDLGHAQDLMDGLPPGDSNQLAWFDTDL
# T4: full-length beta-Catenin (Uniprot ID P35222) (Homo sapiens (Human), UniProt P35222 2-781)
# T4 construct: The fluorescence polarization protocol says only 'full-length'; also called bCat; B-Catenin
# T4 sequence: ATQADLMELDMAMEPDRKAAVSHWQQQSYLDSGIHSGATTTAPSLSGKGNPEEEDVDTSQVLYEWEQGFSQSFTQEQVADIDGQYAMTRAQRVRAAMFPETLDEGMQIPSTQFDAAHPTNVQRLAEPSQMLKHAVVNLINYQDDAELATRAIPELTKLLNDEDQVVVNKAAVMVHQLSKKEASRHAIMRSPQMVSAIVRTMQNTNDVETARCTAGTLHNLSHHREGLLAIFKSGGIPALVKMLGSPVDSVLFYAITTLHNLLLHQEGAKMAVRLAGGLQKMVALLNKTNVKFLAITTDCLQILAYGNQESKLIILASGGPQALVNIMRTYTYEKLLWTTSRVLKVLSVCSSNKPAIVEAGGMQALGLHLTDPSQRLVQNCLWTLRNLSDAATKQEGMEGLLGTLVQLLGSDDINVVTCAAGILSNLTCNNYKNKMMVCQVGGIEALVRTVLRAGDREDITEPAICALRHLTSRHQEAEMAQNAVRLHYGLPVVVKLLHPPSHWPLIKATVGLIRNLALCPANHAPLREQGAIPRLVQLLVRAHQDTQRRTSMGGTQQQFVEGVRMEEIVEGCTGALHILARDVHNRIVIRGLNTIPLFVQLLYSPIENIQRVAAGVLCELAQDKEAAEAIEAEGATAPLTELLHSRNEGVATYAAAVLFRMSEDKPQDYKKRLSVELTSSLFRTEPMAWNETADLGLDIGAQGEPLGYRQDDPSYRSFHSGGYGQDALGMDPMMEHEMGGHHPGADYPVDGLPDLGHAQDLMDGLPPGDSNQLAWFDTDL
# Columns and labels:
# [1] = molecular target: T1, beta-catenin in DLD1 TCF/LEF luciferase …; assay: cell-based or functional assay
# [2] = molecular target: T2, B-cat-Halo (beta-catenin HaloTag fusion …); assay: cell-based or functional assay
# [3] = molecular target: T3, full-length beta-Catenin (Uniprot ID …); assay: fluorescence polarization competition; full-length beta-catenin + 5FAM-TCF4 10-53 probe
# Method: (§1) The plate was incubated protected from light for 60 minutes at 20° C. prior to read. Reads were performed on a CLARIOstar plate reader (BMG Labtech) in duplicate, and data were fitted to a 1:1 binding model with hill slope using an in-house script. All provided concentrations are final concentrations.
# [4] = molecular target: T4, full-length beta-Catenin (Uniprot ID …); assay: fluorescence polarization competition; full-length beta-catenin + 5FAM-TCF4(10-53) probe; peptide titrated
# Method: as §1
binder,measurement,setting,value
"Ac-[αAllylPro]D[tBuAla][B5(5)]D[(CCpCO2H)TriAzDap]AAFL[PyrS2″][3Thi][Bta]Q-NH2 (staple 1-4, 4-11; not fully specified; printed as Ac-PL3-Asp-Npg-B5-Asp-[CCpCO2H]TriAzDap-Ala-Ala-Phe-Leu-PyrS2-3Thi-BztA-Gln-NH2) [I-2445]",DLD1 4% Abs IC50,[1],9.5 µM
same,NanoBRET Abs IC50,[2],17.1 µM
"Ac-[αAllylPro]DA[B5(10)]NTAAFL[PyrS2]F[Bta]Q-NH2 (staple 1-4, 4-11; not fully specified; printed as Ac-PL3-Asp-Ala-B5-Asn-Thr-Ala-Ala-Phe-Leu-PyrS2-Phe-BztA-Gln-NH2, earlier eluting HPLC peak (staple isomer composition); also called Ac-PL3-Asp-Ala-B5-Asn-Thr-Ala-Ala-Phe-Leu-PyrS2-Phe-BztA-Gln-NH2) [I-1295]",IC50,[3],10 µM
"Ac-[αAllylPro]DA[B5(10)]NTAAFL[PyrS2]F[Bta]Q-NH2 (staple 1-4, 4-11; not fully specified; printed as Ac-PL3-Asp-Ala-B5-Asn-Thr-Ala-Ala-Phe-Leu-PyrS2-Phe-BztA-Gln-NH2, later eluting HPLC peak (staple isomer composition); also called Ac-PL3-Asp-Ala-B5-Asn-Thr-Ala-Ala-Phe-Leu-PyrS2-Phe-BztA-Gln-NH2) [I-1296]",IC50,[3],3.79 µM
"Ms-[αAllylPro]DI[B5(5)]DEAAFQ[S8]F[Bta]Q-NH2 (staple 1-4, 4-11, Stapled peptide composition; also called MeSO2-PL3-Asp-Ile-B5-Asp-Glu-Ala-Ala-Phe-Gln-S8-Phe-BztA-Gln-NH2) [I-710]",EC50,[4],0.073 µM
